Experimental findings from patent US20180282719A1 (published 2018) are described below.

One may read the Kd as the concentration at which binding is half-saturated. As a reminder, the koff is the first-order rate constant of dissociation. In general, kon refers to a measure of how fast the partners come together.

Residue numbers refer to the chain shown, from its start.

The target of assay [1] is T1, recombinant soluble human IL-6 receptor (SR344) (human, UniProt P08887 20-344, biotinylated (sites not given) where immobilized via streptavidin or used in phage ELISA).
T1 construct: also called soluble IL-6 receptor; membrane-type IL-6 receptor (when biotinylated and immobilized on the chip)
T1 sequence (looked up): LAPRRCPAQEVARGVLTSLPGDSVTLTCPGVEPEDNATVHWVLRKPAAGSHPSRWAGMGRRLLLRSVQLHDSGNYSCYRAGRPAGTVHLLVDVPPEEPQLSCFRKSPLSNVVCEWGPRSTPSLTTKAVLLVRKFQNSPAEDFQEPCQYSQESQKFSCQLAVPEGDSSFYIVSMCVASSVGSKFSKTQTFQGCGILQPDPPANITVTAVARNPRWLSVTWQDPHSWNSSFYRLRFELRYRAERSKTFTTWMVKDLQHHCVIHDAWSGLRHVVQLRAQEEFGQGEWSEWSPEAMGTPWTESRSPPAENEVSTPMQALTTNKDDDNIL
Description: SPR Biacore T100, antibody on protein A/G chip, SR344 analyte, 37 C, ratio of pH 5.8 to pH 7.4. The protocol:
(§1) Kinetic analysis of antigen-antibody reactions at pH 7.4 and pH 5.8 was carried out using a Biacore T100™ surface plasmon resonance system (GE Healthcare) for the four types of antibodies prepared: WT-IgG1, H54/L28-IgG1, H170/L82-IgG1, and Fv4-IgG1 (buffer: 10 mM MES (pH 7.4 or pH 5.8), 150 mM NaCl, 0.05% Surfactant P20 (polyoxyethelene sorbitan monolaurate)). The antibodies were bound to a sensor chip on which recomb-protein A/G (Pierce) was immobilized by amine coupling, and SR344 adjusted to an appropriate concentration was injected therein as an analyte. The association with and dissociation from SR344 of each type of antibody were observed on a real-time basis. All the measurements were carried out at 37° C. Association rate constants kₐ (1/Ms) and dissociation rate constants kd (1/s) were calculated using Biacore T100™ Evaluation Software (GE Healthcare), and dissociation constants KD (M) were calculated based on those values (Table 17).
(In general: In SPR one partner is held on a chip, and binding of the other changes the refractive index at the surface.)

Assay [2] addresses T1, recombinant soluble human IL-6 receptor …. Nature of the assay: SPR Biacore T100, antibody on protein A/G chip, SR344 analyte, pH 7.4, 37 C. The protocol:
as §1

The target is the same in assay [3]. Description: SPR Biacore T100, antibody on protein A/G chip, SR344 analyte, pH 5.8, 37 C. The protocol:
as §1

The target is the same in assay [4]. Description: SPR Biacore T100, biotinylated SR344 on streptavidin chip (model of membrane-type IL-6 receptor), antibody as analyte, bound at pH 7.4, dissociation at pH 7.4, 37 C. The protocol:
(§2) Binding to the membrane-type IL-6 receptor was evaluated by evaluating binding to the IL-6 receptor immobilized on a sensor chip. SR344 was biotinylated in accordance with a method known among persons with ordinary skill in the art, and the biotinylated SR344 was immobilized on the sensor chip via streptavidin using the affinity between streptavidin and biotin. All the measurements were carried out at 37° C. The mobile phase buffer was 10 mM MES (pH 5.8), 150 mM NaCl and 0.05% TWEEN® 20 (polyoxyethelene sorbitan monolaurate).
(§3) The pH-dependently-binding clones were injected under the condition of pH 7.4 to allow them to bind to SR344, and then, the pH-dependent dissociation of each clone at the pH of the mobile phase, pH 5.8, was observed. The results are shown in FIG. 21 (results for Fv1-M71, Fv1-M73, Fv3-M71, and Fv3-M73 are shown in FIG. 21, while results for other clones are shown in FIGS. 17 and 19). Analyses were carried out in the same manner as in Example 10 and the pH dependencies of the dissociation rate constants of all of the eleven types of clones are shown in Table 12.

Assay [5] has the same target. Nature of the assay: SPR Biacore T100, biotinylated SR344 on streptavidin chip (model of membrane-type IL-6 receptor), antibody as analyte, 37 C. The protocol: as §2, §3
Assay [6] has the same target. Nature of the assay: SPR Biacore T100, biotinylated SR344 on streptavidin chip (model of membrane-type IL-6 receptor), antibody as analyte, bound at pH 7.4, dissociation at pH 5.8, 37 C. The protocol: as §2, §3
For assay [7] the target is unchanged. Nature of the assay: SPR Biacore T100, antibody captured by anti-IgG gamma chain F(ab)2, SR344 analyte, pH 7.4, 37 C. The protocol: Kinetic analyses of antigen-antibody reactions at pH 7.4 were carried out on the four types of antibodies, i.e., the humanized PM1 antibody (wild type: WT), and […], H3pI/L73-IgG1, Fv2-IgG1, and Fv4-IgG1 constructed in Examples 2 and 10, by using a Biacore T100™ surface plasmon resonance system (GE Healthcare) (buffer: 10 mM MES (pH 7.4), 150 mM NaCl, 0.05% TWEEN® 20 (polyoxyethelene sorbitan monolaurate)). Each antibody was bound on a sensor chip on which an anti-IgG γ chain specific F(ab)₂ (Pierce) was immobilized by amine coupling, and then, SR344 adjusted to a concentration of 9.8 to 40 nM was injected thereto as an analyte. The association to and dissociation from SR344 were observed on a real-time basis for the pH-dependent-binding clones. All the measurements were carried out at 37° C. Association rate constants kₐ (1/Ms) and dissociation rate constants kd (1/s) were calculated using Biacore T100™ Evaluation Software (GE Healthcare), and dissociation constants KD (M) were calculated on the basis of those values (Table 7).
The association to and dissociation from SR344 were observed on a real-time basis using the same method as Example 10 for the eleven types of antibodies, humanized PM1 antibody (wild type: WT) and H3pI/L73-IgG1, Fv1-M71, Fv1-M73, Fv2-IgG1, Fv3-M71, Fv3-M73, Fv4-IgG1, Fv4-IgG2, Fv4-M58, and Fv4-M73, constructed as described above. The association rate constants kₐ (1/Ms) and dissociation rate constants kd. (1/s) were calculated by analysis in the same manner, and the dissociation constants KD (M) were calculated on the basis of those values (Table 11).

B1: H54/L28-IgG1 (antibody, V domains shown)
VH: QVQLQESGPGLVKPSETLSLTCAVSGYSISDDQAWSWVRQPPGEGLEWIGYISYSGITNYNPSLKGRVTISRDTSKNQFSLKLSSVTAADTAAYYCARSLARTTAMDYWGEGTLVTVSS
VL: DIQMTQSPSSLSASVGDSVTITCQASQDISSYLNWYQQKPGKAPELLIYYGSELHSGVPSRFSGSGSGTDFTFTISSLEAEDAATYYCQQGNSLPYTFGQGTKVEIE
notes: IgG1
For the molecule B1, in assay [1], the “KD (pH 5.8)/KD (pH 7.4)” value was determined as 0.7 and the “kd (pH 5.8)/kd (pH 7.4)” value stood at 2. For the same molecule, in assay [2], the Kd is 1.7 nM, the koff is 0.0014 s⁻¹ and the on-rate (kon) amounted to 830000 M⁻¹ s⁻¹. Besides, in assay [3], the dissociation constant Kd is 1.1 nM, the dissociation rate constant (koff) was 0.0027 s⁻¹ and the kon worked out at 2.4e+06 M⁻¹ s⁻¹.

B2: Fv3-M73 (antibody)
heavy: QVQLQESGPGLVKPSETLSLTCAVSGHSISHDHAWSWVRQPPGEGLEWIGFISYSGITNYNPTLQGRVTISRDNSKNTLYLQMNSLRAEDTAVYYCARSLARTTAMDYWGEGTLVTVSSASTKGPSVFPLAPSSKSTSGGTAALGCLVKDYFPEPVTVSWNSGALTSGVHTFPAVLQSSGLYSLSSVVTVPSSNFGTQTYTCNVDHKPSNTKVDKTVERKSCVECPPCPAPPVAGPSVFLFPPKPKDTLMISRTPEVTCVVVDVSQEDPEVQFNWYVDGVEVHNAKTKPREEQFNSTFRVVSVLTVVHQDWLNGKEYKCKVSNKGLPAPIEKTISKTKGQPREPQVYTLPPSQEEMTKNQVSLTCLVKGFYPSDIAVEWESNGQPENNYKTTPPMLDSDGSFFLYSKLTVDKSRWQEGNVFSCSVMHEALHAHYTQKSLSLSP
light: DIQMTQSPSSLSASVGDSVTITCQASRDISSHLNWYQQKPGKAPELLIYYGSHLLSGVPSRFSGSGSGTDFTFTISSLEAEDAATYYCGQGNRLPYTFGQGTKVEIERTVAAPSVFIFPPSDEQLKSGTASVVCLLNNFYPREAKVQWKVDNALQSGNSQESVTEQDSKDSTYSLSSTLTLSKADYEKHKVYACEVTHQGLSSPVTKSFNRGEC
Turning to B2, the dissociation rate constant (koff) in assay [4] was found to be 0.00049 s⁻¹. Further, in assay [5], the “kd (pH 5.8)/kd (pH 7.4)” value stood at 10.9. Besides, in assay [6], the koff was determined as 0.0053 s⁻¹. Moreover, in assay [7], the dissociation constant Kd was 1 nM, the koff was determined as 0.00087 s⁻¹ and the kon is 850000 M⁻¹ s⁻¹.

B3: Fv1-M73 (antibody)
heavy: QVQLQESGPGLVKPSETLSLTCAVSGYSISHDHAWSWVRQPPGEGLEWIGHISYSGITNYNPHLQDRVTISRDTSKNQFSLKLSSVTAADTAVYYCARFLARITAHDHWGEGTLVTVSSASTKGPSVFPLAPSSKSTSGGTAALGCLVKDYFPEPVTVSWNSGALTSGVHTFPAVLQSSGLYSLSSVVTVPSSNFGTQTYTCNVDHKPSNTKVDKTVERKSCVECPPCPAPPVAGPSVFLFPPKPKDTLMISRTPEVTCVVVDVSQEDPEVQFNWYVDGVEVHNAKTKPREEQFNSTFRVVSVLTVVHQDWLNGKEYKCKVSNKGLPAPIEKTISKTKGQPREPQVYTLPPSQEEMTKNQVSLTCLVKGFYPSDIAVEWESNGQPENNYKTTPPMLDSDGSFFLYSKLTVDKSRWQEGNVFSCSVMHEALHAHYTQKSLSLSP
light: B2 light with L55E
In the case of B3, the koff in assay [4] came out at 0.00037 s⁻¹; in assay [6] it was 0.0032 s⁻¹; in assay [7], 0.00055 s⁻¹. In assay [5], the “kd (pH 5.8)/kd (pH 7.4)” value came out at 8.8. Further, the dissociation constant (Kd) in assay [7] was determined as 0.91 nM. Also, the kon in assay [7] stood at 610000 M⁻¹ s⁻¹.

B4: Fv1-M71 (antibody, human IgG2, kappa)
heavy: QVQLQESGPGLVKPSETLSLTCAVSGYSISHDHAWSWVRQPPGEGLEWIGHISYSGITNYNPHLQDRVTISRDTSKNQFSLKLSSVTAADTAVYYCARFLARITAHDHWGEGTLVTVSSASTKGPSVFPLAPCSRSTSESTAALGCLVKDYFPEPVTVSWNSGALTSGVHTFPAVLQSSGLYSLSSVVTVPSSNFGTQTYTCNVDHKPSNTKVDKTVERKCCVECPPCPAPPVAGPSVFLFPPKPKDTLMISRTPEVTCVVVDVSHEDPEVQFNWYVDGVEVHNAKTKPREEQFNSTFRVVSVLTVVHQDWLNGKEYKCKVSNKGLPAPIEKTISKTKGQPREPQVYTLPPSREEMTKNQVSLTCLVKGFYPSDIAVEWESNGQPENNYKTTPPMLDSDGSFFLYSKLTVDKSRWQQGNVFSCSVMHEALHAHYTQKSLSLSPGK
light: B2 light with L55E
Take B4: the koff in assay [4] turned out to be 0.00061 s⁻¹. For the same molecule, the “kd (pH 5.8)/kd (pH 7.4)” value in assay [5] worked out at 11.3. Also, the koff in assay [6] came to 0.0069 s⁻¹. In addition, in assay [7], the equilibrium dissociation constant (Kd) amounted to 0.97 nM, the koff stood at 0.00054 s⁻¹ and the kon turned out to be 550000 M⁻¹ s⁻¹.

B5: Fv3-M71 (antibody, human IgG2, kappa)
heavy: QVQLQESGPGLVKPSETLSLTCAVSGHSISHDHAWSWVRQPPGEGLEWIGFISYSGITNYNPTLQGRVTISRDNSKNTLYLQMNSLRAEDTAVYYCARSLARTTAMDYWGEGTLVTVSSASTKGPSVFPLAPCSRSTSESTAALGCLVKDYFPEPVTVSWNSGALTSGVHTFPAVLQSSGLYSLSSVVTVPSSNFGTQTYTCNVDHKPSNTKVDKTVERKCCVECPPCPAPPVAGPSVFLFPPKPKDTLMISRTPEVTCVVVDVSHEDPEVQFNWYVDGVEVHNAKTKPREEQFNSTFRVVSVLTVVHQDWLNGKEYKCKVSNKGLPAPIEKTISKTKGQPREPQVYTLPPSREEMTKNQVSLTCLVKGFYPSDIAVEWESNGQPENNYKTTPPMLDSDGSFFLYSKLTVDKSRWQQGNVFSCSVMHEALHAHYTQKSLSLSPGK
light: B2 light
Regarding B5, the values for the koff in assay [4], in assay [6] and in assay [7] were 0.00091 s⁻¹, 0.0097 s⁻¹ and 0.00082 s⁻¹, respectively. The “kd (pH 5.8)/kd (pH 7.4)” value in assay [5] came out at 10.7. Also, in assay [7], the Kd is 1.1 nM. Also, in assay [7], the kon was 780000 M⁻¹ s⁻¹.
